{"source": "patent US10869832B2", "about": "“Substance delivery device and substance delivery method using the same” (priority 2013, dated 2020)", "system": "OVA-specific IgG", "test": "OVA-specific IgG by ELISA after single-dose immunization", "assay_type": "in vivo", "conditions": "SD rats, two weeks after injection, single dose (IM 500 μg OVA, MN 200 μg OVA)", "protocol": "4-week-old SD rats are divided into four groups. Rats of the first three groups are injected with saline, OVA, and chitosan hydrogel loaded with OVA by intramuscular inoculation, respectively. The fourth group is administrated with OVA through the microneedle patch of the present embodiment. In detail, the SD rat is weighed, anesthetized, and shaved. 200 μl of saline is injected into the thigh of each SD rat of the first group (“IM saline” group). 500 μg of OVA in the same volume are injected into the thigh of each SD rat of the second group (“IM-OVA” group). 200 μl of chitosan hydrogel loaded with 500 μg of OVA (mixed in the same ratio as the microneedle patch) are injected into the thigh of each SD rat of the third group (“IM-OVA+CS” group). A microneedle patch encapsulating 200 μg of OVA is applied the each SD rat of the fourth group (“MN-OVA” group). The blood of each SD rat of each group sampled at the 0, 2nd and 4th week after injection is centrifuged for 5 minutes at 3000 rpm to separate serum from blood cells in the plasma. IgG levels in the collected serum are then evaluated by ELISA.", "data": [{"molecule": "IM-OVA: 500 μg of OVA (ovalbumin) injected intramuscularly (protein, UniProt P01012 2-386, looked up) Ovalbumin: GSIGAASMEFCFDVFKELKVHHANENIFYCPIAIMSALAMVYLGAKDSTRTQINKVVRFDKLPGFGDSIEAQCGTSVNVHSSLRDILNQITKPNDVYSFSLASRLYAEERYPILPEYLQCVKELYRGGLEPINFQTAADQARELINSWVESQTNGIIRNVLQPSSVDSQTAMVLVNAIVFKGLWEKAFKDEDTQAMPFRVTEQESKPVQMMYQIGLFRVASMASEKMKILELPFASGTMSMLVLLPDEVSGLEQLESIINFEKLTEWTSSNVMEERKIKVYLPRMKMEEKYNLTSVLMAMGITDVFSSSANLSGISSAESLKISQAVHAAHAEINEAGREVVGSAEAGVDAASVSEEFRADHPFLFCIKHIATNAVLFFGRCVSP", "values": [{"measurement": "OVA-specific IgG level", "value": "much lower than the MN-OVA and IM-OVA+CS group"}]}]}
